# Like-named read-outs stand apart in the source and are kept apart here.
# B1: AU6A (unlabeled) (ssRNA)
# RNA: AUUUUUUA
# B2: rpoS-AA (ssRNA)
# RNA: GGGAACAACAAGAAGUUAAGGCGGGGCAAAAAAUA
# B3: A7 (unlabeled) (ssRNA)
# RNA: AAAAAAA
# B4: AU6A (ssRNA)
# RNA: AUUUUUUA
# B5: rpoS-AC (unlabeled) (ssRNA)
# RNA: AACAACAAG
# B6: rpoS-AC (ssRNA)
# RNA: AACAACAAG
# B7: A7 (ssRNA)
# RNA: AAAAAAA
# Columns and labels:
# Hfq65 [1] = target: T1, Hfq65 (Escherichia coli, UniProt P0A6X3 1-65); assay: X-ray crystallography
# Hfq65 R16A/R17A [2] = target: T2, Hfq65 R16A/R17A (Escherichia coli, UniProt P0A6X3 1-65, R16A;R17A); assay: NMR titration
# HfqFL WT = HfqFL WT (Escherichia coli, UniProt P0A6X3 1-102); assay: EMSA
# Hfq65 [3] = target: T1, Hfq65; assay: X-ray crystallography; remark: listed apart in the source
# HfqFL Y25A = HfqFL Y25A (Escherichia coli, UniProt P0A6X3 1-102, Y25A); assay: fluorescence polarization
# Hfq65 R16A/R17A [4] = target: T2, Hfq65 R16A/R17A; assay: NMR titration; remark: listed apart in the source
# HfqFL F42S = HfqFL F42S (Escherichia coli, UniProt P0A6X3 1-102, F42S); assay: fluorescence polarization
binder,measurement,setting,value
B1,binding result,Hfq65 [1],binds
same,binding result,Hfq65 R16A/R17A [2],binds
B2,binding result,HfqFL WT,binds
B3,binding result,Hfq65 [3],binds
B4,binding result,HfqFL Y25A,binds
B5,binding result,Hfq65 R16A/R17A [4],binds
B6,binding result,HfqFL F42S,binds
B7,binding result,HfqFL F42S,binds
